The assay deals with T1, T. thermophilus RNase H I_(core) fragment (T. thermophilus).
T1 chain: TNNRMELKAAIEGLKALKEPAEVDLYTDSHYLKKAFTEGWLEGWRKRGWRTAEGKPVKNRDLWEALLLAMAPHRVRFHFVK
As to the kind of experiment: AUC; equilibrium analytical ultracentrifugation (Beckman XL-I); 25, 50 and 100 uM samples; 24,500, 30,000 and 37,000 rpm; absorbance at 250 nm; global fit to a monomer-dimer equilibrium (dimer to monomers); room temperature, 20 mM sodium acetate pH 5.5, 50 mM potassium chloride. To be noted: both partners purified.

Here are results for one molecule from publication PMC4372590, “Autonomously Folding Protein Fragments Reveal Differences in the Energy Landscapes of Homologous RNases H” (PLoS ONE, 2015).

B1: T. thermophilus RNase H I_(core) fragment (domain or fragment)
chain: TNNRMELKAAIEGLKALKEPAEVDLYTDSHYLKKAFTEGWLEGWRKRGWRTAEGKPVKNRDLWEALLLAMAPHRVRFHFVK
modifications: Printed limits 43-122 use E. coli alignment numbering. The offset is +4 at the N-terminal end (R4=R8, W22=W26, D66=D70) and +5 after the one-residue insertion near 80, so 122=K127. The paper says …
The Kd is a measure of binding affinity in units of concentration. A high value points to a looser complex. As usually defined, the stoichiometry N is a count of units in the complex or per binding partner. For the molecule B1, the Kd was about 150 µM and the “stoichiometry N” value was 2.
